{"source": "paper PMC2408616", "about": "“Modular Organization and Combinatorial Energetics of Proline–Tyrosine Nuclear Localization Signals” (PLoS Biology, 2008)", "binders": {"B1": {"name": "GST–Nab2p, full-length (natural protein, S. cerevisiae, UniProt P32505 1-525, looked up)", "chain": "MSQEQYTENLKVIVAEKLAGIPNFNEDIKYVAEYIVLLIVNGGTVESVVDELASLFDSVSRDTLANVVQTAFFALEALQQGESAENIVSKIRMMNAQSLGQSDIAQQQQQQQQQQQPDIAQQQPQQQPQQQPQQQPQQQPQQQPQQQPQQQPQQQPQLQPLQPQLGTQNAMQTDAPATPSPISAFSGVVNAAAPPQFAPVDNSQRFTQRGGGAVGKNRRGGRGGNRGGRNNNSTRFNPLAKALGMAGESNMNFTPTKKEGRCRLFPHCPLGRSCPHAHPTKVCNEYPNCPKPPGTCEFLHPNEDEELMKEMERTREEFQKRKADLLAAKRKPVQTGIVLCKFGALCSNPSCPFGHPTPANEDAKVIDLMWCDKNLTCDNPECRKAHSSLSKIKEVKPISQKKAAPPPVEKSLEQCKFGTHCTNKRCKYRHARSHIMCREGANCTRIDCLFGHPINEDCRFGVNCKNIYCLFRHPPGRVLPEKKGAAPNSNVPTNERPFALPENAIIENAPPQTSFTHQEQDTEMN", "notes": "Nab2p, S. cerevisiae; also called full-length Nab2p; source: E. coli BL21(DE3), immobilized on glutathione sepharose"}, "B2": {"name": "GST–Tfg2p, full-length (natural protein, S. cerevisiae, UniProt P41896 1-400, looked up)", "chain": "MSSGSAGAPALSNNSTNSVAKEKSGNISGDEYLSQEEEVFDGNDIENNETKVYEESLDLDLERSNRQVWLVRLPMFLAEKWRDRNNLHGQELGKIRINKDGSKITLLLNENDNDSIPHEYDLELTKKVVENEYVFTEQNLKKYQQRKKELEADPEKQRQAYLKKQEREEELKKKQQQQKRRNNRKKFNHRVMTDRDGRDRYIPYVKTIPKKTAIVGTVCHECQVMPSMNDPNYHKIVEQRRNIVKLNNKERITTLDETVGVTMSHTGMSMRSDNSNFLKVGREKAKSNIKSIRMPKKEILDYLFKLFDEYDYWSLKGLKERTRQPEAHLKECLDKVATLVKKGPYAFKYTLRPEYKKLKEEERKATLGELADEQTGSAGDNAQGDAEADLEDEIEMEDVV", "notes": "Tfg2p, S. cerevisiae; source: E. coli BL21(DE3), immobilized on glutathione sepharose"}, "B3": {"name": "Kap104p (receptor)", "chain": "MASTWKPAEDYVLQLATLLQNCMSPNPEIRNNAMEAMENFQLQPEFLNYLCYILIEGESDDVLKQHYSLQDLQNNRATAGMLLKNSMLGGNNLIKSNSHDLGYVKSNIIHGLYNSNNNLVSNVTGIVITTLFSTYYRQHRDDPTGLQMLYQLLELTSNGNEPSIKALSKIMEDSAQFFQLEWSGNTKPMEALLDSFFRFISNPNFSPVIRSESVKCINTVIPLQTQSFIVRLDKFLEIIFQLAQNDENDLVRAQICISFSFLLEFRPDKLVSHLDGIVQFMLHLITTVNEEKVAIEACEFLHAFATSPNIPEHILQPYVKDIVPILLSKMVYNEESIVLLEASNDDDAFLEDKDEDIKPIAPRIVKKKEAGNGEDADDNEDDDDDDDDEDGDVDTQWNLRKCSAATLDVMTNILPHQVMDIAFPFLREHLGSDRWFIREATILALGAMAEGGMKYFNDGLPALIPFLVEQLNDKWAPVRKMTCWTLSRFSPWILQDHTEFLIPVLEPIINTLMDKKKDVQEAAISSVAVFIENADSELVETLFYSQLLTSFDKCLKYYKKKNLIILYDAIGRFAEKCALDETAMQIILPPLIEKWALLSDSDKELWPLLECLSCVASSLGERFMPMAPEVYNRAFRILCHCVELEAKSHQDPTIVVPEKDFIITSLDLIDGLVQGLGAHSQDLLFPQGTKDLTILKIMLECLQDPVHEVRQSCFALLGDIVYFFNSELVIGNLEDFLKLIGTEIMHNDDSDGTPAVINAIWALGLISERIDLNTYIIDMSRIILDLFTTNTQIVDSSVMENLSVTIGKMGLTHPEVFSSGAFANDSNWNKWCLSVNALDDVEEKSSAYMGFLKIINLTSTEVTMSNDTIHKIVTGLSSNVEANVFAQEIYTFLMNHSAQISAINFTPDEISFLQQFTS"}, "B4": {"name": "MBP–Nab2p NLS 210GGG212/AAA (protein)", "chain": "DNSQRFTQRAAAAVGKNRRGGRGGNRGGRNNNSTRFNPLAKALGMAGESNM"}}, "key": {"Kap104p [1]": {"target": "T1, Kap104p (yeast (S. cerevisiae), UniProt P38217 1-918)", "T1 construct": "Kap104p, yeast homolog of Kapβ2; gene a gift from J. Aitchison, subcloned into pGEX-Tev; also called yeast Karyopherin β2 homolog; source: E. coli Rosetta(DE3)pLysS, purified (glutathione sepharose, TEV cleavage, anion exchange, gel filtration)", "T1 sequence (looked up)": "B3 chain", "assay": "pull-down; ~30 μg Kap104p added to ~10 μg GST protein immobilized on 20 μl glutathione sepharose; washes with TB buffer (20 mM HEPES pH 7.3, 110 mM KAc, 2 mM MgAc, 1 mM EGTA, 2 mM DTT, 20% glycerol); second incubation with buffer or RanGTP (5-fold molar excess); SDS-PAGE, Coomassie", "details": "both partners purified"}, "[2]": {"target": "T2, MBP–Nab2p NLS, all of the arginines mutated to lysines (S. cerevisiae, UniProt P32505 201-251, R218K | R219K | R222K | R226K | R229K)", "T2 sequence": "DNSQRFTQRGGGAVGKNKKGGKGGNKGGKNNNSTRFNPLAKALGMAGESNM", "assay": "ITC"}, "MBP–Nab2p NLS R235A": {"target": "T3, MBP–Nab2p NLS R235A (S. cerevisiae, UniProt P32505 201-251, R235A)", "T3 sequence": "B4 chain with A10G, A11G, A12G, R35A", "assay": "ITC"}, "MBP–Nab2p NLS R235H": {"target": "T4, MBP–Nab2p NLS R235H (S. cerevisiae, UniProt P32505 201-251, R235 to histidine)", "T4 sequence": "B4 chain with A10G, A11G, A12G, R35H", "assay": "ITC"}, "MBP–Nab2p NLS F236L": {"target": "T5, MBP–Nab2p NLS F236L (S. cerevisiae, UniProt P32505 201-251, F236L)", "T5 sequence": "B4 chain with A10G, A11G, A12G, F36L", "assay": "ITC"}, "MBP–Nab2p NLS F236A": {"target": "T6, MBP–Nab2p NLS F236A (S. cerevisiae, UniProt P32505 201-251, F236A)", "T6 sequence": "B4 chain with A10G, A11G, A12G, F36A", "assay": "ITC"}, "Kap104p [3]": {"target": "Kap104p (UniProt P38217)", "assay": "ITC"}, "Kap104p [4]": {"target": "B3", "assay": "ITC"}}, "note": "Residue numbers refer to the chain shown, from its start.", "data": [{"binder": "B1", "values": [{"measurement": "binding result", "setting": "Kap104p [1]", "result": "binds"}]}, {"binder": "B2", "values": [{"measurement": "binding result", "setting": "Kap104p [1]", "result": "binds"}]}, {"binder": "B3", "values": [{"measurement": "Kd", "setting": "[2]", "result": 21, "unit": "nM"}, {"measurement": "Kd", "setting": "MBP–Nab2p NLS R235A", "result": 203, "unit": "nM"}, {"measurement": "Kd", "setting": "MBP–Nab2p NLS R235H", "result": 63, "unit": "nM"}, {"measurement": "Kd", "setting": "MBP–Nab2p NLS F236L", "result": 66, "unit": "nM"}, {"measurement": "Kd", "setting": "MBP–Nab2p NLS F236A", "result": 296, "unit": "nM"}]}, {"binder": "B4", "values": [{"measurement": "ddG", "setting": "Kap104p [3]", "result": -0.4, "unit": "kcal/mol"}, {"measurement": "ratio to parent", "setting": "Kap104p [3]", "result": 0.5}, {"measurement": "Kd", "setting": "Kap104p [3]; parent: 37 ± 20", "result": 19, "unit": "nM"}, {"measurement": "other: TΔS", "setting": "Kap104p [3]; parent: -1.3 ± 0.6", "result": 0.5, "unit": "kcal/mol"}, {"measurement": "dG", "setting": "Kap104p [3]; parent: -10.0 ± 0.3", "result": -10.4, "unit": "kcal/mol"}, {"measurement": "other: ΔH", "setting": "Kap104p [3]; parent: -11.3 ± 0.5", "result": -9.8, "unit": "kcal/mol"}, {"measurement": "Kd", "setting": "Kap104p [4]", "result": 19, "unit": "nM"}]}]}
